Assay results: patent publication US9266964

B1: M11-E04 (Fab, V domains shown)
VH: EVQLLESGGGLVQPGGSLRLSCAASGFTFSMYHMNWVRQAPGKGLEWVSGIVSSGGVTFYADSVKGRFTISRDNSKNTLYLQMNSLRAEDTAVYYCARITTVTTGGAFDIWGQGTMVTVSS
VL: DIQMTQSPSSLSASVGDRVTITCRASQSISIYLTWYQHRPGKAPNLLIYGAATLQTGVPSRFSGSGSGTDFTLTIRGLQPEDFATYYCQQTFSLPRTFGQGTKLEIK
notes: Fab fragment (E. coli TG1); printed HC runs into the start of CH1
B2: M11-E05 (Fab, V domains shown)
VH: EVQLLESGGGLVQPGGSLRLSCAASGFTFSWYTMGWVRQAPGKGLEWVSWIYFGGLTTYADSVKGRFTISRDNSKNTLYLQMNSLRAEDTAVYYCARLGGPLDAFDIWGQGTMVTVSS
VL: DIQMTQSPSSLSASVGDTVTITCRTSQTINNYLNWYQQRPGEAPKVLIYATHTLESGVPSRFSGSGSGTDFTLTIGSLQPEDFATYYCQQSFAFPYTFGQGTKVEIT
notes: as for B1
B3: M9-H04 (Fab, V domains shown)
VH: EVQLLESGGGLVQPGGSLRLSCAASGFTFSAYTMWWVRQAPGKGLEWVSSIWPSGGSTFYADSVKGRFTISRDNSKNTLYLQMNSLRAEDTAVYYCARTYDSSAGEVDYWGQGTLVTVSS
VL: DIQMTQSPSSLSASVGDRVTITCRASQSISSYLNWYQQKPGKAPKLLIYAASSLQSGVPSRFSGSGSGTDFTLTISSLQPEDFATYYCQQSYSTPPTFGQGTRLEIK
notes: as for B1
B4: M10-G09 (Fab, V domains shown)
VH: EVQLLESGGGLVQPGGSLRLSCAASGFTFSQYGMQWVRQAPGKGLEWVSSIRSSGGATRYADSVKGRFTISRDNSKNTLYLQMNSLRAEDTAVYYCARDGYYDSSGYPDYWGQGTLVTVSS
VL: DIQMTQSPSSLSASVGDSVTITCRASQSISGYINWYQQKAGKAPKLLIYAASSLQSGVPSRFSGSGSGTHFTLTISSLQPEDFATYYCQQYVSYPFTFGPGTKVDIK
notes: as for B1
B5: M10-F09 (Fab, V domains shown)
VH: EVQLLESGGGLVQPGGSLRLSCAASGFTFSNYDMMWVRQAPGKGLEWVSYISPSGGFTRYADSVKGRFTISRDNSKNTLYLQMNSLRAEDTATYYCAKDIYYYNWGPSHYFDSWGQGTLVTVSS
VL: DIQMTQSPSSLSASVGDRVTITCRASQTIDDDLIWYQQKPGRAPKLLIYAASSLQSGVPSRFSGSGSGTDFTLTITSLQPEDFATYYCQQSYNIPRTFGQGTKLESK
notes: as for B1
B6: M11-E01 (Fab, V domains shown)
VH: EVQLLESGGGLVQPGGSLRLSCAASGFTFSTYEMYWVRQAPGKGLEWVSGIGSSGGMTMYADSVKGRFTISRDNSKNTLYLQMNSLRAEDTAMYYCAREQPGIAALQFWGQGTLVTVSS
VL: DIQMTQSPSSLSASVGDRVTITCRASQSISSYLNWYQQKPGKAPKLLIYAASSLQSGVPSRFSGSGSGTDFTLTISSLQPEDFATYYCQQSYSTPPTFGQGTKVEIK
notes: as for B1
B7: M10-A12 (Fab, V domains shown)
VH: EVQLLESGGGLVQPGGSLRLSCAASGFTFSLYLMHWVRQAPGKGLEWVSSIYSSGGFTTYADSVKGRFTISRDNSKNTLYLQMNSLRAEDTAVYYCARDTDYGMDVWGQGTTVTVSS
VL: DIQMTQSPLSLSAFVGDRVTITCRASRDISVYLNWYQLKSGKAPKLLIYGASSLQSGVPSRFSGSGSGTDFTLTITSLQPEDFATYYCQQSYSIPFTFGGGTKVETK
notes: as for B1
B8: M10-C11 (Fab, V domains shown)
VH: EVQLLESGGGLVQPGGSLRLSCAASGFTFSMYPMMWVRQAPGKGLEWVSYISPSGGMTDYADSVKGRFTISRDNSKNTLYLQMNSLRAEDMAVYYCARVAGSSDAFDIWGQGTMVTVSS
VL: DIQMTQSPSSLSASVGDRVTITCRASQSISIYLNWYQQKPEKAPKLLIFAASTLQSGVPSRFSGSGSGTDFTLTISNLQPEDFATYYCQQSHSIPPTFGLGTKVEVK
notes: as for B1
B9: M9-H03 (Fab, V domains shown)
VH: EVQLLESGGGLVQPGGSLRLSCAASGFTFSWYSMGWVRQAPGKGLEWVSYIVPSGGYTMYADSVKGRFTISRDNSKNTLYLQMNSLRAEDTAVYYCARDPGVSYYYYGMDVWGQGTTVTVSS
VL: QYELTQAPSVSVAPGQTASITCSGDKLGNRYTSWYQQKPGQSPVLVIFQDNKRPSGIPERFSGSNSGNTATLTISGTQAMDEADYYCQALDSNTYVFGTGTKVTVL
notes: as for B1
B10: M9-F10 (Fab, V domains shown)
VH: EVQLLESGGGLVQPGGSLRLSCAASGFTFSDYDMEWVRQAPGKGLEWVSSISPSGGSTIYADSVKGRFTISRDNSKNTLYLQMNSLRAEDTAVYYCARQGLLTAFDIWGQGTMVTVSS
VL: DIQMTQSPSSLSASVGDRVTITCRASQSINTYLNWYQQKPGKAPKVLIHAASTLESGVPSRFSGSGSGTDFTLTISSLQPEDFATYYCQQSYSTPYTFGQGTKLEVR
notes: as for B1
B11: M11-A10 (Fab, V domains shown)
VH: EVQLLESGGGLVQPGGSLRLSCAASGFTFSNYWMMWVRQAPGKGLEWVSGIGSSGGFTSYADSVKGRFTISRDNSKNTLYLQMNSLRAEDTAVYYCAKGSYSDYGVFESWGQGTLVTVSS
VL: DIQMTQSPSSLSASVGDRVAITCRASQSIDTYLNWYQQKPGKAPKLLIYDASNLEIGVPSRFSGSGSGTDFTFIINSLQPEDVATYYCQHYLYAPYSFGQGTKLEIK
notes: as for B1
B12: M10-E06 (Fab, V domains shown)
VH: EVQLLESGGGLVQPGGSLRLSCAASGFTFSLYRMFWVRQAPGKGLEWVSSIWSSGGPTMYADSVKGRFTISRDNSKNTLYLQMNSLRAEDTAVYYCAREYPSTYYFDYWGQGTLVTVSS
VL: DIQMTQSPSSLSASVGDRVTITCRASQSISTYLNWYQQKPGKAPKLLIYGASSLQSGVPSRFSGSGSGTDFTLTISSLQPEDFTIYYCQQSYSDPYTFGQGTKLDIK
notes: as for B1
B13: M10-D11 (Fab, V domains shown)
VH: EVQLLESGGGLVQPGGSLRLSCAASGFTFSAYPMNWVRQAPGKGLEWVSRISSSGGNTSYADSVKGRFTISRDNSKNTLYLQMNSLRAEDTAVYYCALGYLGYWGQGTLVTVSS
VL: not shown
notes: as for B1
B14: M10-B09 (Fab, V domains shown)
VH: EVQLLESGGGLVQPGGSLRLSCAASGFTFSWYEMSWVRQAPGKGLEWVSRIWPSGGVTMYADSVKGRFTISRDNSKNTLYLQMNSLRAEDTAVYYCTRTSITTVGMDVWGQGTTVTVSS
VL: DIQMTQSPSSLSASVGDGVTITCRASQSISTYLNWYQQRPGKAPKLLIYGASSLQSGVPSRFSGSGSGTDFTLTISSLQREDFATYYCQQSFSTPWTFGQGTRVEIK
notes: Fab fragment (E. coli TG1); printed HC runs into the start of CH1; The HC is printed with an amber codon 'q' (LqMNSL), written here as Q
B15: M10-A03 (Fab, V domains shown)
VH: EVQLLESGGGLVQPGGSLRLSCAASGFTFSPYPMQWVRQAPGKGLEWVSSISSSGGMTEYADSVKGRFTISRDNSKNTLYLQMNSLRAEDTAVYYCARDDYGGKGGAFDIWGQGTMVTVSS
VL: DIQMTQSPSSLSASVGDRVTITCRASQRISFYLNWFQQKPGKAPNLLIYGASSLQSGVPSRFSGSGSGTDFTLTISSLQPKDFGTYYCQQTFSTPNTFGQGTKLEIK
notes: as for B1
B16: M9-H02 (Fab, V domains shown)
VH: EVQLLESGGGLVQPGGSLRLSCAASGFTFSAYMMIWVRQAPGKGLEWVSVIYPSGGVTMYADSVKGRFTISRDNSKNTLYLQMNSLRAEDTAVYYCARGTVGASDAFDIWGQGTMVTVSS
VL: DIQMTQSPSSLSASVGDRVIITCRASRSIATYLNWYQQKPGKAPNLLIFGASTLQSGVPSRFSGSGSGTDFTLTISDLQPEDFATYYCQQSFSDPYTFGQGTNLEMK
notes: as for B1
B17: M9-G08 (Fab, V domains shown)
VH: EVQLLESGGGLVQPGGSLRLSCAASGFTFSYYTMLWVRQAPGKGLEWVSSIYPSGGFTMYADSVKGRFTISRDNSKNTLYLQMNSLRAEDTAVYYCARVDTAMAMIDYWGQGTLVTVSS
VL: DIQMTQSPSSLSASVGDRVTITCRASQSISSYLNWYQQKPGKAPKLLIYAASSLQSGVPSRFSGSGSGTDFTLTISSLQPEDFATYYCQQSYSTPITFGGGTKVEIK
notes: as for B1

Target: T1, human plasma kallikrein (human, UniProt P03952 20-390; P03952 391-638)
T1 construct: two disulfide-linked chains; also called pKal; human pKal
Experiment: ELISA; signal on coated biotinylated human plasma kallikrein divided by signal on streptavidin; Fab
From the text: Abbreviations used: "T/B" is the ELISA signal obtained using of the target (biotinylated plasma kallikrein) divided by the ELISA signal of the "background" (streptavidin); both of which were coated on microtiter plates. "nd" is not determined. The symbol "q" refers to the amber suppressible stop codon (TAG), which is translated as glutamine (Q) in strains of E. coli such as the TG1 cells that were used to express the Fab fragments.

T1 sequence (P03952 20-390, chain 1 of 2): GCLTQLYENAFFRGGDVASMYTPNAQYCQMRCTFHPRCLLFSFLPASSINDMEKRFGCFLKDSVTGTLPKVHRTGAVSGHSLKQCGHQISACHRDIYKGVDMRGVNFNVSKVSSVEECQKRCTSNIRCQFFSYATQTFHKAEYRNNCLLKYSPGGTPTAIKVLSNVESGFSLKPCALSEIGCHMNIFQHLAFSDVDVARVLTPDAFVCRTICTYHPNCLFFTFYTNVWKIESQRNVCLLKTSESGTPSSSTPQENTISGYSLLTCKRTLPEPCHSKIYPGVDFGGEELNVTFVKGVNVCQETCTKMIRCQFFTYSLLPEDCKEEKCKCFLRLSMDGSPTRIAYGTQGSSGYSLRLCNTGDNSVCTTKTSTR
T1 sequence (P03952 391-638, chain 2 of 2): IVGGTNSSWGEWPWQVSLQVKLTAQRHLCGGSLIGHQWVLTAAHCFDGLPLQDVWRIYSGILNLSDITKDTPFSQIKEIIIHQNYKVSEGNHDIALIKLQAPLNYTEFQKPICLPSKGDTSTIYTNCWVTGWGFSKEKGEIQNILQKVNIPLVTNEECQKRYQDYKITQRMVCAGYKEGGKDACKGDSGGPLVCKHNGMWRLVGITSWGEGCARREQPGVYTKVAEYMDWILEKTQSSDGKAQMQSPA

| Binder | Human pKal ELISA (T/B) |
| --- | --- |
| B1 | 43.2 T/B (target signal / background signal) |
| B2 | 41.4 T/B (target signal / background signal) |
| B3 | 16.1 T/B (target signal / background signal) |
| B4 | 7.1 T/B (target signal / background signal) |
| B5 | 4.8 T/B (target signal / background signal) |
| B6 | 11.7 T/B (target signal / background signal) |
| B7 | 20.8 T/B (target signal / background signal) |
| B8 | 5.3 T/B (target signal / background signal) |
| B9 | 4.4 T/B (target signal / background signal) |
| B10 | 8.4 T/B (target signal / background signal) |
| B11 | 25 T/B (target signal / background signal) |
| B12 | 32.8 T/B (target signal / background signal) |
| B13 | 6.4 T/B (target signal / background signal) |
| B14 | 14.1 T/B (target signal / background signal) |
| B15 | 33.7 T/B (target signal / background signal) |
| B16 | 3.5 T/B (target signal / background signal) |
| B17 | 4.8 T/B (target signal / background signal) |
